Results: patent US20160031999A1 (CSL, published 2016)

T1: human IL-11Rα on transfected cells (human, UniProt Q14626 23-422)
T1 sequence: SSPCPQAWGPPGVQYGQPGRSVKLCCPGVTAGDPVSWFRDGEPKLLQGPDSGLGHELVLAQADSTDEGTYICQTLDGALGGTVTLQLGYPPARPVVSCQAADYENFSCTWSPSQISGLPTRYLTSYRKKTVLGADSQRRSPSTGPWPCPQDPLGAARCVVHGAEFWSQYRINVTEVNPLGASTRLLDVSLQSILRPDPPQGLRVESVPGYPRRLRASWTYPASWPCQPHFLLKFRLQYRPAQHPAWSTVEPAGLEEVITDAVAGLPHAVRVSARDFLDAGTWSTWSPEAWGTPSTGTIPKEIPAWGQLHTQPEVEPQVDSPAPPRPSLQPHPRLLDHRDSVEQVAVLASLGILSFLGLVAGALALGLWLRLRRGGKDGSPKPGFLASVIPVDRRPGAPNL

T2: human IL-11Rα (form used in the assay not stated) (human, UniProt Q14626 23-363, limits assumed)
T2 construct: also called hIL-11R; hIL-11Rα
T2 sequence: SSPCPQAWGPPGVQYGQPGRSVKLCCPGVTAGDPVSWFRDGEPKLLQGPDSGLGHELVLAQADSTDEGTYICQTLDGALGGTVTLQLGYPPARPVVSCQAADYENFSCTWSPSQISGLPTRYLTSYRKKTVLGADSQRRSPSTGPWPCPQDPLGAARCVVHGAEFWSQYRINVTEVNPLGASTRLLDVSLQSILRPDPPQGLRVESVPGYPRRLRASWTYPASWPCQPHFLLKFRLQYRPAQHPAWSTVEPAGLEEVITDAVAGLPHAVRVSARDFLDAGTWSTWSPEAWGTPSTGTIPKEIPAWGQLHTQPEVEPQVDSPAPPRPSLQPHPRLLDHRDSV


Tests used:
[1] = biological target: T1, human IL-11Rα on transfected cells; assay: cell-based or functional assay
[2] = biological target: T2, human IL-11Rα (form used in the assay …); assay: Biacore, pH 8.5, 37°C

Row | Binder | Fold increase in potency relative to 8E2 [1] [fold] | IC50 [1] [µg/mL] | Kd [2] [nM]
1 | hu8E2-TS-14 (antibody, V domains shown) VH: EVQLLESGGGLVQPGGSLRLSCAASGFTFSWYSMTWVRQAPGKGLEWVSSIVPSGGHTQYADSVKGRFTISRDNSKNTLYLQMNSLRAEDTAVYYCAKGPGWGSFDLWGRGTLVTVSS VL: DIQMTQSPSSLSASVGDRVTITCQASQDINNYLNWYQQKPGKAPKLLIYDASNLQTGVPSRFSGSGSGTDFTFTISSLQPEDIATYYCQQHDNQSPTFGPGTKVDIK | 1.6 | 0.52 | 0.342
2 | hu8E2-TS-9 (antibody, V domains shown) VH: EVQLLESGGGLVQPGGSLRLSCAASGFTFSWYSMTWVRQAPGKGLEWVSSIVPSGGHTQYADSVKGRFTISRDNSKNTLYLQMNSLRAEDTAVYYCAKGPGWGSFDLWGRGTLVTVSS VL: DIQMTQSPSSLSASVGDRVTITCQASQDINNYLNWYQQKPGKAPKLLIYDASNLQTGVPSRFSGSGSGTDFTFTISSLQPEDIATYYCQQAEEQSPTFGPGTKVDIK | 3.1 | 0.68 | 2.29
3 | hu8E2-TS-32 (antibody, V domains shown) VH: EVQLLESGGGLVQPGGSLRLSCAASGFTFSWYSMTWVRQAPGKGLEWVSSIVPSGGHTQYADSVKGRFTISRDNSKNTLYLQMNSLRAEDTAVYYCAKGPGWGSFDLWGRGTLVTVSS VL: DIQMTQSPSSLSASVGDRVTITCQASQDINNYLNWYQQKPGKAPKLLIYDASNLQTGVPSRFSGSGSGTDFTFTISSLQPEDIATYYCTQWETQSPTFGPGTKVDIK | 2.4 | 0.41 | 9.56
4 | hu8E2-TS-58 (antibody, V domains shown) VH: EVQLLESGGGLVQPGGSLRLSCAASGFTFSWYSMTWVRQAPGKGLEWVSSIVPSGGHTQYADSVKGRFTISRDNSKNTLYLQMNSLRAEDTAVYYCAKGPGWGSFDLWGRGTLVTVSS VL: DIQMTQSPSSLSASVGDRVTITCQASQDINNYLNWYQQKPGKAPKLLIYDASNLQTGVPSRFSGSGSGTDFTFTISSLQPEDIATYYCQQYETQQPFFGPGTKVDIK | 6 | 0.23 | 0.957
5 | hu8E2-TS-22 (antibody, V domains shown) VH: EVQLLESGGGLVQPGGSLRLSCAASGFTFSWYSMTWVRQAPGKGLEWVSSIVPSGGHTQYADSVKGRFTISRDNSKNTLYLQMNSLRAEDTAVYYCAKGPGWGSFDLWGRGTLVTVSS VL: DIQMTQSPSSLSASVGDRVTITCQASQDINNYLNWYQQKPGKAPKLLIYDASNLQTGVPSRFSGSGSGTDFTFTISSLQPEDIATYYCQQFETQSPTFGPGTKVDIK | 2 | 0.4 | 0.838
6 | hu8E2-TS-57 (antibody, V domains shown) VH: EVQLLESGGGLVQPGGSLRLSCAASGFTFSWYSMTWVRQAPGKGLEWVSSIVPSGGHTQYADSVKGRFTISRDNSKNTLYLQMNSLRAEDTAVYYCAKGPGWGSFDLWGRGTLVTVSS VL: DIQMTQSPSSLSASVGDRVTITCQASQDINNYLNWYQQKPGKAPKLLIYDASNLQTGVPSRFSGSGSGTDFTFTISSLQPEDIATYYCQQYETQMPLFGPGTKVDIK | 3.9 | 0.25 | 0.658
7 | hu8E2-TS-29 (antibody, V domains shown) VH: EVQLLESGGGLVQPGGSLRLSCAASGFTFSWYSMTWVRQAPGKGLEWVSSIVPSGGHTQYADSVKGRFTISRDNSKNTLYLQMNSLRAEDTAVYYCAKGPGWGSFDLWGRGTLVTVSS VL: DIQMTQSPSSLSASVGDRVTITCQASQDINNYLNWYQQKPGKAPKLLIYDASNLQTGVPSRFSGSGSGTDFTFTISSLQPEDIATYYCQQSEEQSPTFGPGTKVDIK | 2.5 | 0.33 | 1.06
8 | hu8E2-TS-2 (antibody, V domains shown) VH: EVQLLESGGGLVQPGGSLRLSCAASGFTFSWYSMTWVRQAPGKGLEWVSSIVPSGGHTQYADSVKGRFTISRDNSKNTLYLQMNSLRAEDTAVYYCAKGPGWGSFDLWGRGTLVTVSS VL: DIQMTQSPSSLSASVGDRVTITCQASQDINNYLNWYQQKPGKAPKLLIYDASNLQTGVPSRFSGSGSGTDFTFTISSLQPEDIATYYCQQAEDQSPTFGPGTKVDIK | 7.9 | 0.26 | 0.529
9 | hu8E2-TS-49 (antibody, V domains shown) VH: EVQLLESGGGLVQPGGSLRLSCAASGFTFSWYSMTWVRQAPGKGLEWVSSIVPSGGHTQYADSVKGRFTISRDNSKNTLYLQMNSLRAEDTAVYYCAKGPGWGSFDLWGRGTLVTVSS VL: DIQMTQSPSSLSASVGDRVTITCQASQDINNYLNWYQQKPGKAPKLLIYDASNLQTGVPSRFSGSGSGTDFTFTISSLQPEDIATYYCQQYESQAPEFGPGTKVDIK | 5.2 | 0.19 | 1.5
10 | hu8E2-TS-55 (antibody, V domains shown) VH: EVQLLESGGGLVQPGGSLRLSCAASGFTFSWYSMTWVRQAPGKGLEWVSSIVPSGGHTQYADSVKGRFTISRDNSKNTLYLQMNSLRAEDTAVYYCAKGPGWGSFDLWGRGTLVTVSS VL: DIQMTQSPSSLSASVGDRVTITCQASQDINNYLNWYQQKPGKAPKLLIYDASNLQTGVPSRFSGSGSGTDFTFTISSLQPEDIATYYCQQYETQTPAFGPGTKVDIK | 4.8 | 0.21 | 0.483

Continued, values first:

Row | Fold increase in potency relative to 8E2 [1] [fold] | IC50 [1] [µg/mL] | Kd [2] [nM] | Binder
11 | 2.7 | 0.31 | 0.23 | hu8E2-TS-21 (antibody, V domains shown) VH: EVQLLESGGGLVQPGGSLRLSCAASGFTFSWYSMTWVRQAPGKGLEWVSSIVPSGGHTQYADSVKGRFTISRDNSKNTLYLQMNSLRAEDTAVYYCAKGPGWGSFDLWGRGTLVTVSS VL: DIQMTQSPSSLSASVGDRVTITCQASQDINNYLNWYQQKPGKAPKLLIYDASNLQTGVPSRFSGSGSGTDFTFTISSLQPEDIATYYCQQSESQSPTFGPGTKVDIK
12 | 2.3 | 0.35 | 0.39 | hu8E2-TS-17 (antibody, V domains shown) VH: EVQLLESGGGLVQPGGSLRLSCAASGFTFSWYSMTWVRQAPGKGLEWVSSIVPSGGHTQYADSVKGRFTISRDNSKNTLYLQMNSLRAEDTAVYYCAKGPGWGSFDLWGRGTLVTVSS VL: DIQMTQSPSSLSASVGDRVTITCQASQDINNYLNWYQQKPGKAPKLLIYDASNLQTGVPSRFSGSGSGTDFTFTISSLQPEDIATYYCSQFESQSPTFGPGTKVDIK
13 | 0.6 | 1.3 | 0.284 | hu8E2-TS-20 (antibody, V domains shown) VH: EVQLLESGGGLVQPGGSLRLSCAASGFTFSWYSMTWVRQAPGKGLEWVSSIVPSGGHTQYADSVKGRFTISRDNSKNTLYLQMNSLRAEDTAVYYCAKGPGWGSFDLWGRGTLVTVSS VL: DIQMTQSPSSLSASVGDRVTITCQASQDINNYLNWYQQKPGKAPKLLIYDASNLQTGVPSRFSGSGSGTDFTFTISSLQPEDIATYYCQQNESQSPTFGPGTKVDIK
14 | 3.3 | 0.63 | 0.108 | hu8E2-TS-7 (antibody, V domains shown) VH: EVQLLESGGGLVQPGGSLRLSCAASGFTFSWYSMTWVRQAPGKGLEWVSSIVPSGGHTQYADSVKGRFTISRDNSKNTLYLQMNSLRAEDTAVYYCAKGPGWGSFDLWGRGTLVTVSS VL: DIQMTQSPSSLSASVGDRVTITCQASQDINNYLNWYQQKPGKAPKLLIYDASNLQTGVPSRFSGSGSGTDFTFTISSLQPEDIATYYCQQHENQSPTFGPGTKVDIK
15 | 3.6 | 0.28 | 0.455 | hu8E2-TS-51 (antibody, V domains shown) VH: EVQLLESGGGLVQPGGSLRLSCAASGFTFSWYSMTWVRQAPGKGLEWVSSIVPSGGHTQYADSVKGRFTISRDNSKNTLYLQMNSLRAEDTAVYYCAKGPGWGSFDLWGRGTLVTVSS VL: DIQMTQSPSSLSASVGDRVTITCQASQDINNYLNWYQQKPGKAPKLLIYDASNLQTGVPSRFSGSGSGTDFTFTISSLQPEDIATYYCQQYESQWPFFGPGTKVDIK
16 | 6.6 | 0.31 | 0.295 | hu8E2-TS-4 (antibody, V domains shown) VH: EVQLLESGGGLVQPGGSLRLSCAASGFTFSWYSMTWVRQAPGKGLEWVSSIVPSGGHTQYADSVKGRFTISRDNSKNTLYLQMNSLRAEDTAVYYCAKGPGWGSFDLWGRGTLVTVSS VL: DIQMTQSPSSLSASVGDRVTITCQASQDINNYLNWYQQKPGKAPKLLIYDASNLQTGVPSRFSGSGSGTDFTFTISSLQPEDIATYYCQQHEFQSPTFGPGTKVDIK
17 | 1.4 | 0.41 | 0.289 | hu8E2-TS-6 (antibody, V domains shown) VH: EVQLLESGGGLVQPGGSLRLSCAASGFTFSWYSMTWVRQAPGKGLEWVSSIVPSGGHTQYADSVKGRFTISRDNSKNTLYLQMNSLRAEDTAVYYCAKGPGWGSFDLWGRGTLVTVSS VL: DIQMTQSPSSLSASVGDRVTITCQASQDINNYLNWYQQKPGKAPKLLIYDASNLQTGVPSRFSGSGSGTDFTFTISSLQPEDIATYYCEQFESQSPTFGPGTKVDIK
